We go through five substances from patent US7423021B2, “Peptidic thrombin inhibitors” (NSCI Novel Science International GmbH, priority 2003, dated 2008).

Square brackets hold non-standard residues; d marks the D form. hArg = N=C(N)NCCCC[C@H](N)C(=O)O; Cha = N[C@@H](CC1CCCCC1)C(=O)O; dCha = N[C@H](CC1CCCCC1)C(=O)O; Dcp = dichlorophenylalanine; Nle = CCCC[C@H](N)C(=O)O; Aze = O=C(O)[C@@H]1CCN1

Experiment [1] has as its target thrombin. As to conditions: literature values; cited from earlier work.
In experiment [2] the target is thrombin (Homo sapiens, UniProt P00734). Put plainly: in-vitro inhibition of the amidase activity of thrombin (fluorogenic substrate Tos-Gly-Pro-Arg-AMC). The class given is biochemical. Set-up: 10 μl of human thrombin solution. How it is done:
The values of the inhibiting constants Ki were obtained from assays in which thrombin hydrolyzes the fluorogenic substrate Tos-Gly-Pro-Arg-(7-amino-4-methylcumarin). The assays were carried out in […] of assay buffer (0.05 M tris, 0.1 M NaCl, 0.1% PEG 8000, pH 7.6) with 10 μl of human thrombin solution (10^−5 U/μl in the assay buffer) and 140 μl of a solution of the fluorogenic substrate in an assay buffer at a concentration of 30 μM. Solutions of the test compound (10 μl) were added at various concentrations. The rates of the hydrolysis of the substrate were measured by monitoring the reactions at […] of the release of 7-amino-4-methylcumarin using AMC. The reaction reached an equilibrium state within three minutes, after thrombin, the substrate, and an inhibitor were mixed. The kinetic data of the competing inhibition (Km, Vmax, and Ki) were analyzed by means of the representation according to Hanes (A/V against A at various values of A, where A is the substrate concentration and V the reaction rate).

H-D-Phe-Pro-Arg-H: at thrombin [1], the Ki (as a rule, the equilibrium dissociation constant of an inhibitor or competing ligand from its target) is 70 nM. Consider “N-acetyl-L-Ser-L-Arg-L-Cha-D-Pro-D-Tyr-L-Arg amide (Ac-SR[Cha][dP][dY]R-NH2; SMILES CC(=O)N[C@@H](CO)C(=O)N[C@@H](CCCNC(=N)N)C(=O)N[C@@H](CC1CCCCC1)C(=O)N1CCC[C@@H]1C(=O)N[C@H](Cc1ccc(O)cc1)C(=O)N[C@@H](CCCNC(=N)N)C(N)=O) [Example 11]”, for which the “inhibition of the amidase activity of the thrombin” value (from here on “inhibition”) with thrombin [2] (peptide concentration of 1 μM) worked out at 51%. The same measure, in the same setting: to “N-acetyl-D-Val-L-Cha-D-Pro-D-Tyr-L-Arg amide (Ac-[dV][Cha][dP][dY]R-NH2; SMILES CC(=O)N[C@@H](C(=O)N[C@@H](CC1CCCCC1)C(=O)N1CCC[C@@H]1C(=O)N[C@H](Cc1ccc(O)cc1)C(=O)N[C@@H](CCCNC(=N)N)C(N)=O)C(C)C) [Example 8]” belongs 45%.

“N-acetyl-L-Dcp-D-Cha-L-Aze-D-Tyr-L-Har amide (Ac-[Dcp][dCha][Aze][dY][hArg]-NH2) [Example 21]”: the “inhibition” value with thrombin [2] (peptide concentration of 250 nM) was 75%. Take “N-acetyl-D-Lys-L-Nle-L-Cha-D-Pro-D-Tyr-L-Arg amide (Ac-[dK][Nle][Cha][dP][dY]R-NH2; SMILES CCCC[C@H](NC(=O)[C@@H](CCCCN)NC(C)=O)C(=O)N[C@@H](CC1CCCCC1)C(=O)N1CCC[C@@H]1C(=O)N[C@H](Cc1ccc(O)cc1)C(=O)N[C@@H](CCCNC(=N)N)C(N)=O) [Example 12]”: in the experiment with thrombin [2] (peptide concentration of 1 μM), the “inhibition” value is on record as 48%.
